Measured values published in patent US20200199244A1 (published 2020).
Changes are numbered by the printed parent chain. Several values for one entry are separate records, joined by “and”; a condition that tells them apart may be missing. Identical values can stand only once.

Legend:
biotinylated human CD40 [1] = biological target: T1, biotinylated human CD40 (human, UniProt P25942 21-193, limits assumed, biotinylated (sites not given)); assay: SPR, BIAcore 3000, 10 µM dAb alone over biotinylated human CD40
T1 construct: Biotinylated human CD40 (supplied by BMS), about 600 RU immobilised on a streptavidin BIAcore chip; also called hCD40

biotinylated human CD40 [2] = biological target: T1, biotinylated human CD40; assay: SPR, BIAcore 3000, 5 µM dAb alone over biotinylated human CD40
Description: A BIAcore™ 3000 instrument (GE Healthcare) was used to analyze whether CD40-specific dAbs bound the same CD40 epitope. […] A second flow-cell without any ligand immobilized served as a reference flow-cell for inline referencing. An appropriate dilution of each dAb or Fab to be analyzed was prepared in HBS-EP buffer (0.01 M HEPES pH 7.4 with 0.15 M NaCl, 3 mM EDTA and 0.005% v/v Surfactant P20, GE Healthcare). […] Next, a mixture of the same dAb or Fab as above (at the same final concentration) was prepared with a second dAb or Fab to be analyzed for competition. The COINJECT function of the instrument was used to inject 60 μl of the single-inhibitor dilution across the CD40-immobilized and reference flow-cells in series, followed immediately by a 60 μl injection of the two-inhibitor mixture. Inline subtraction of the signal from the reference cell was performed by the instrument's control software. The experiment was performed at 25° C. and a flow rate of 30 μl/min of HBS-EP. […] The maximum RU obtained for the second injection (the mixture of the two inhibitors) was noted and expressed as a percentage of the RU obtained for the same inhibitor when injected alone.

[3] = biological target: T2, human CD40 (W109R) Fc fusion (Chimpanzee CD40) (human, UniProt P25942 21-193); assay: SPR ProteOn XPR36, CD40-Fc captured, dAb analyte
T2 construct: As m1 with W109R (residue of chimpanzee CD40); also called hCD40-M3; not shown: human IgG1 Fc

[4] = biological target: T3, wild type cynomolgus monkey CD40 Fc fusion (cynomolgus monkey; human); assay: SPR ProteOn XPR36, CD40-Fc captured, dAb analyte
T3 construct: also called wt-cyno-CD40; wt-cCD40; not shown: human IgG1 Fc
T3 chain: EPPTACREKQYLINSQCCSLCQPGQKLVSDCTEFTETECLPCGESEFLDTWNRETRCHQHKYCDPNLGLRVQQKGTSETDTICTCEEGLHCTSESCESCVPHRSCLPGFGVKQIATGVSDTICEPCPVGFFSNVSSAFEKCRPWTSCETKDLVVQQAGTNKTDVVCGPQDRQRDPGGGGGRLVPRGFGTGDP

[5] = biological target: T4, human CD40 (H76R) Fc fusion (human, UniProt P25942 21-193); assay: SPR ProteOn XPR36, CD40-Fc captured, dAb analyte
T4 construct: As m1 with H76R; also called hCD40-M1; not shown: human IgG1 Fc

[6] = biological target: T5, human CD40 (W109L, L121P) Fc fusion (human, UniProt P25942 21-193); assay: SPR ProteOn XPR36, CD40-Fc captured, dAb analyte
T5 construct: As m1 with W109L and L121P; also called hCD40-M4; not shown: human IgG1 Fc

[7] = biological target: T6, human CD40 (W109L) Fc fusion (human, UniProt P25942 21-193); assay: SPR ProteOn XPR36, CD40-Fc captured, dAb analyte
T6 construct: As m1 with W109L; also called hCD40-M2; not shown: human IgG1 Fc

[8] = biological target: T7, wild type human CD40 Fc fusion (human, UniProt P25942 21-193); assay: SPR ProteOn XPR36, CD40-Fc captured, dAb analyte
T7 construct: also called wt-hCD40; not shown: human IgG1 Fc

[9] = biological target: T8, human CD40 (H76R, W109L, L121P) Fc fusion (human); assay: SPR ProteOn XPR36, CD40-Fc captured, dAb analyte
T8 construct: As m1 with H76R, W109L and L121P; also called hCD40-M5; not shown: human IgG1 Fc
T8 chain: T3 chain with S95A, L106S, R142H, Q172L

[10] = biological target: T2, human CD40 (W109R) Fc fusion …; assay: SPR ProteOn XPR36;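 further: surface plasmon resonance with CD40-Fc fusions captured through their Fc on an anti-human IgG chip, sensorgrams reference-subtracted against surfaces lacking CD40-Fc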
Description: (§1) Assays were performed on a BioRad ProteOn XPR36 SPR instrument. The SPR surfaces were prepared by immobilizing 8 μg/ml anti-human IgG(Fc) antibody (Biacore/GE Healthcare) in 10 mM sodium acetate pH 4.5 on a BioRad GLC sensor chip using standard ethyl(dimethylaminopropyl) carbodiimide (EDC)/N-hydroxysuccinimide (NHS) chemistry, with ethanolamine blocking. The running buffer for immobilization and kinetic binding analysis was 10 mM sodium phosphate, 130 mM sodium chloride, 0.05% tween 20, pH 7.1. CD40-Fc fusion proteins at concentrations of 20 μg/ml were captured in the vertical orientation on these surfaces via the Fc tail, and reference surfaces lacking CD40-Fc proteins were used for reference subtraction. […] The surfaces were regenerated in both horizontal and vertical orientations with 30 s pulses of 3 M MgCl₂ followed by running buffer at 60 μl/min. Sensogram data was double-referenced and then fitted to a 1:1 Langmuir model using BioRad ProteOn Manager V.2.1.0.38 software, to determine the association rate constant (ka), the dissociation rate constant (kd), and the equilibrium dissociation constant (KD).

[11] = biological target: T3, wild type cynomolgus monkey CD40 Fc …; assay: SPR ProteOn XPR36;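 further: surface plasmon resonance with CD40-Fc fusions captured through their Fc on an anti-human IgG chip, sensorgrams reference-subtracted against surfaces lacking CD40-Fc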
Description: as §1

[12] = biological target: T5, human CD40 (W109L, L121P) Fc fusion; assay: SPR ProteOn XPR36;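 further: surface plasmon resonance with CD40-Fc fusions captured through their Fc on an anti-human IgG chip, sensorgrams reference-subtracted against surfaces lacking CD40-Fc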
Description: as §1

[13] = biological target: T6, human CD40 (W109L) Fc fusion; assay: SPR ProteOn XPR36;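 further: surface plasmon resonance with CD40-Fc fusions captured through their Fc on an anti-human IgG chip, sensorgrams reference-subtracted against surfaces lacking CD40-Fc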
Description: as §1

[14] = biological target: T8, human CD40 (H76R, W109L, L121P) Fc …; assay: SPR ProteOn XPR36
Description: as §1

[15] = biological target: T9, rhesus macaque CD40 on CD20+ B cells in blood (rhesus macaque, UniProt F6SNI1 21-278); assay: flow cytometry on whole blood, anti-PEG detection, gate on CD20+ B cells
T9 construct: whole, on cells; also called rhesus CD40
Description: (§2) 100 μl from each blood sample was aliquoted to 12×75 mm tubes and washed 3 times with FACS buffer (0.5% FBS/PBS/0.1% sodium azide). Tubes were centrifuged for 5 minutes at 1500 rpm, and supernatants were decanted between washes. Following the washes, tubes were placed on ice and incubated with human IgG for 5 minutes to block non-specific binding via Fc receptors.
(§3) Samples were washed once in FACS buffer, then incubated with an APC-labeled CD20 antibody (clone 2H7, BD Biosciences) and PE labeled-anti-mouse IgG (Fcγ1 specific; Calbiochem) for an additional 30 minutes on ice.
(§4) To lyse red blood cells and fix white blood cells following detection antibody incubation, FACS Lysing Solution (BD Biosciences) was added to all tubes, and samples were incubated for 15 minutes at room temperature. Samples were centrifuged and resuspended in FACS Lysing Solution, and analyzed by flow cytometry on a BD FACSCanto™, gating on CD20+ B cells for analysis. For marmoset samples, the CD20 antibody was not cross reactive; therefore analysis was performed on all lymphocytes as identified by forward and side scatter properties (size).

[16] = biological target: T10, cynomolgus monkey CD40 on CD20+ B cells in blood (Macaca fascicularis (cynomolgus monkey), UniProt P25942 21-277 (human entry)); assay: as above
T10 construct: also called cynoCD40
T10 chain: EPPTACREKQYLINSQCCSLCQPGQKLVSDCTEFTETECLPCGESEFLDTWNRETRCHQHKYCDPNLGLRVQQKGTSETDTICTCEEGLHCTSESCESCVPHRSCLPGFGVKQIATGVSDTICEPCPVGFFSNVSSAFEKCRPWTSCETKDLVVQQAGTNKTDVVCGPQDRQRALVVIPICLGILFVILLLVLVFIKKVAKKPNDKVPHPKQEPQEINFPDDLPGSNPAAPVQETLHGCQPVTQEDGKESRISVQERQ
Description: as §2, §3, §4

[17] = biological target: T11, marmoset CD40 on blood lymphocytes (marmoset, UniProt Q3LRP1 21-274); assay: flow cytometry on whole blood, anti-PEG detection, all lymphocytes by scatter
T11 construct: whole, on cells
Description: as §2, §3, §4

[18] = biological target: T12, human CD40 (W109R) Fc fusion (Chimpanzee CD40) (human, UniProt P25942 21-193); assay: SPR, ProteOn XPR36; CD40-Fc captured, dAb analyte
T12 construct: Same construct as wt-hCD40 with W109R (the residue of chimpanzee CD40); also called hCD40-M3; hCD40 M3 (W109R); not shown: human IgG1 Fc

[19] = biological target: T13, wild type cynomolgus monkey CD40 Fc fusion (cynomolgus monkey (Macaca …)); assay: SPR, ProteOn XPR36; CD40-Fc captured, dAb analyte
T13 construct: also called wt-cCD40; wt-cyno-CD40; not shown: human IgG1 Fc
T13 chain: T3 chain

[20] = biological target: T14, human CD40 (H76R, W109L, L121P) Fc fusion (human); assay: SPR, ProteOn XPR36; CD40-Fc captured, dAb analyte
T14 construct: Same construct as wt-hCD40 with H76R, W109L and L121P; also called hCD40-M5; hCD40-M5 (H76R, W109L, L121P); not shown: human IgG1 Fc
T14 chain: T3 chain with S95A, L106S, R142H, Q172L

[21] = biological target: T15, human CD40 (W109L) Fc fusion (human, UniProt P25942 21-193); assay: SPR, ProteOn XPR36; CD40-Fc captured, dAb analyte
T15 construct: Same construct as wt-hCD40 with W109L; also called hCD40-M2; hCD40 M2 (W109L); not shown: human IgG1 Fc

[22] = biological target: T16, human CD40 (W109L, L121P) Fc fusion (human, UniProt P25942 21-193); assay: SPR, ProteOn XPR36; CD40-Fc captured, dAb analyte
T16 construct: Same construct as wt-hCD40 with W109L and L121P; also called hCD40-M4; hCD40 M4 (W109L, L121P); not shown: human IgG1 Fc

[23] = biological target: T17, wild type human CD40 Fc fusion (human, UniProt P25942 21-193); assay: SPR, ProteOn XPR36; CD40-Fc captured, dAb analyte; 1:1 fit; repeat
T17 construct: also called wt-hCD40; not shown: human IgG1 Fc

[24] = biological target: T18, human CD40 (H76R) Fc fusion (human, UniProt P25942 21-193); assay: SPR, ProteOn XPR36; CD40-Fc captured, dAb analyte; 1:1 fit;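 on Kd: CD40-Fc captured on anti-human IgG(Fc) surface of a GLC chip, buffer pH 7.1, sensorgrams double-referenced against surfaces without CD40-Fc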;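 on koff: CD40-Fc captured on anti-human IgG(Fc) surface of a GLC chip, buffer pH 7.1, sensorgrams double-referenced against surfaces without CD40-Fc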;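 on kon: CD40-Fc captured on anti-human IgG(Fc) surface of a GLC chip, buffer pH 7.1, sensorgrams double-referenced against surfaces without CD40-Fc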
T18 construct: also called hCD40-M1; hCD40 M1 (H76R); not shown: human IgG1 Fc

[25] = biological target: T17, wild type human CD40 Fc fusion; assay: as above
Description: as §1

B1: BMS3h-107 (other)
VH: EVQLLESGGGLVQPGGSLRLSCAASGFTFSGYDMQWVRQAPGKGLEWVSTISASGVFTYYADSVKGRFTTSRDNSKNTLYLQMNSLRAEDTAVYYCAKYPNRFALNNFDYWGQGTLVTVSS
notes: Domain antibody (dAb), single human VH domain
Single dAb RU (biotinylated human CD40 [1]): 35 RU

B2: BMS3h-193-12 (other)
VL: DIQMTQSPSSLSASVGDRVTITCRASQTIERRLNWYQQKPGKAPKLLIYLASRLQSGVPSRFSGSGSGTDFTLTISSLQPEDFATYYCHQYESPPLTFGQGTKVEIKR
notes: Domain antibody (dAb), single human V kappa domain
Single dAb RU (biotinylated human CD40 [2]): 282 RU

B3: BMS3h-217 (other)
VL: DIQMTQSPSSLSASVGDRVTITCRASHFIGTLLSWYQQKPGKAPKLLITYGSLLQSGVPSRFSGSGSGTDFTLTISSLQPEDFATYYCGQGVLWPATFGQGTKVEIKR
notes: as for B2
Single dAb RU (biotinylated human CD40 [1]): 85 RU

B4: BMS3h-217-16 (other)
VL: B3 VL with G41R, A96P
notes: domain antibody (dAb), single VK domain
Kd [3]: 0.27 nM
Kd [4]: 0.4 nM
Kd [5]: 0.35 nM
Kd [6]: 0.35 nM
Kd [7]: 0.41 nM
Kd [8]: 0.22 nM and 0.26 nM
Kd [9]: 0.5 nM

B5: BMS3h-217-5 (other)
VL: B3 VL with S10F, G30A, A96P
notes: as for B4
Kd [3]: 0.72 nM
Kd [4]: 0.9 nM
Kd [5]: 0.94 nM
Kd [6]: 0.93 nM
Kd [7]: 0.99 nM
Kd [8]: 0.47 nM and 0.48 nM
Kd [9]: 1 nM

B6: BMS3h-217-23 (other)
VL: B3 VL with T31S, Q38V, K103T
notes: as for B4
Kd [3]: 1.2 nM
Kd [4]: 1.9 nM
Kd [5]: 1.6 nM
Kd [6]: 1.6 nM
Kd [7]: 2 nM
Kd [8]: 0.78 nM and 1.5 nM
Kd [9]: 2.2 nM

B7: BMS3h-38-2 (other)
VH: EVQLLASGGGLVQPGGSLRLSCAASGFTFEEEEMIWVRQAPGKGLEWVSAISGSGGSTYYADSVKGRFTISRDNSKNTLYLQMNSLRAEDTAVYYCGKEPFRYDYWGQGTLVTVSS
notes: domain antibody (dAb), single VH domain
Kd [5]: 7.2 nM
Kd [8]: 5.1 nM and 8 nM
binding result [10]: no binding (tested: 405 nM)
binding result [11]: no binding (tested: 405 nM)
binding result [12]: no binding (tested: 405 nM)
binding result [13]: no binding (tested: 405 nM)
binding result [14]: no binding (tested: 405 nM)

B8: BMS3h38-2C-P40Br (other)
VH: B7 VH
modifications: PEGylated; attachment residue not stated
notes: PEGylated form of dAb BMS3h-38-2; also called PEGylated anti-human CD40 dAb
binding result [15]: no binding
binding result [16]: no binding
binding result [17]: no binding

B9: BMS3h-38-2 (other)
VH: B7 VH
notes: Anti-human CD40 domain antibody (dAb), single VH domain
binding result [18]: no binding (tested: dAb tested up to 405 nM)
binding result [19]: no binding (tested: dAb tested up to 405 nM)
binding result [20]: no binding (tested: dAb tested up to 405 nM)
binding result [21]: no binding (tested: dAb tested up to 405 nM)
binding result [22]: no binding (tested: dAb tested up to 405 nM)
Kd [23]: 8.04 nM
koff [23]: 0.00114 s⁻¹
kon [23]: 142000 M⁻¹ s⁻¹
Kd [24]: 7.15 nM
koff [24]: 0.001 s⁻¹
kon [24]: 140000 M⁻¹ s⁻¹
Kd [25]: 5.07 nM
koff [25]: 0.000608 s⁻¹
kon [25]: 120000 M⁻¹ s⁻¹

B10: BMS3h-106 (other)
VH: EVQLLESGGGLVQPGGSLRLSCAASGFTFSTYHMQWVRQAPGKGLEWVSMIDADGLGTYYADSVKGRFTISRDNSKNTLYLQMNSLRAEDTAVYYCAKPGPQFGQFDYWGQGTLVTVSS
notes: as for B1
Single dAb RU (biotinylated human CD40 [1]): 165 RU

B11: BMS3h-56-5C-40L (other)
VH: EVQLLESGGGLVQPGGSLRLSCAASGFTFRDYEMWWVRQAPGKGLERVSAINPQGTRTYYADSVMGRFTISRDNSKNTLYLQMNSLRAEDTAVYYCAKLPFTFDDWGQGTLVTVSS
modifications: PEGylated; attachment residue not stated
notes: PEGylated form of dAb BMS3h-56-5; also called PEGylated anti-human CD40 dAb
binding result [15]: no binding
binding result [16]: no binding
binding result [17]: no binding
